Results as given in patent US20090202508A1, “NEGATIVE REGULATION OF HYPOXIA INDUCIBLE FACTOR 1 BY OS-9” (THE JOHNS HOPKINS UNIVERSITY, priority 2004, published 2009).

Key:
PHD2 [1] = target: T1, PHD2 (Homo sapiens, UniProt Q9GZT9); experiment: Prolyl hydroxylation assay / in vitro VHL binding assay with GST-HIF-1α (531-826); type: biochemical
T1 construct: expressed in transfected cells; host or cells: 293 cells (whole cell lysate used as the enzyme source)
Description: [^35S]methionine-labeled VHL protein was synthesized in vitro and GST-HIF-1α (531-826) fusion protein (GstA) was expressed in E. coli. 293 cells were transfected with empty, PHD2, or OS-9 expression vector. After 24 h, cells were washed twice with cold hypotonic extraction buffer containing 20 mM Tris (pH 7.5), 5 mM KCl, 1.5 mM MgCl2, 1 mM dithiothreitol and lysed with hypotonic extraction buffer in a Dounce homogenizer. The cell extract was centrifuged at 10,000×g for 10 min at 4° C., and the supernatant was stored in aliquots at −70° C. GstA (4 μg) was preincubated with whole cell lysate (50 μg) in a total volume of 50 μl with PBS-T at 30° C. for 10 min with or without 1 mM dimethyloxalyl glycine (DMOG). The reaction was terminated by addition of desferrioxamine to 1 mM. One aliquot (0.5 μg of GstA) was used for immunoblot assay using anti-hydroxyproline-564 HIF-1α antibody (Chan et al., 2002). The remainder ([…] of GstA) was used for in vitro VHL binding assay.
For in vitro VHL binding assay, preincubated GstA and 5 μl of [^35S]methionine-labeled VHL protein were mixed in a total volume of 300 μl of PBS-T with 1 mM desferrioxamine and incubated at 4° C. for 90 min. 20 ul of glutathione-Sepharose-4B beads (Amersham Biosciences) was added and incubated for 30 min with rotation. Beads were washed three times with PBS-T. Proteins were eluted in Laemmli sample buffer, fractionated by SDS-PAGE, and detected by autoradiography. For PHD binding assay, […] of GST-HIF-1α was preincubated with 50 μg of -whole cell lysate in a total volume of 50 μl with PBS-T at 30° C. for 10 min with or without 1 mM DMOG. The reaction was terminated by addition of desferrioxamine to 1 mM, 20 μl of glutathione-Sepharose-4B beads were added and incubated for 30 min. The beads were washed three times with PBS-T. Bound protein was eluted in Laemmli sample buffer, fractionated by SDS-PAGE, and subjected to immunoblot assay using antibodies against PHD2 (Novus Biologicals Inc.) or GST (Amersham).

HIF-1α = HIF-1α (Homo sapiens, UniProt Q16665); experiment: Co-immunoprecipitation of HA-OS-9 and HIF-1α in 293 cells; type: cell-based; settings: anti-HA immunoprecipitation, FIG. 2B
HIF-1α, sequence (Q16665 whole entry): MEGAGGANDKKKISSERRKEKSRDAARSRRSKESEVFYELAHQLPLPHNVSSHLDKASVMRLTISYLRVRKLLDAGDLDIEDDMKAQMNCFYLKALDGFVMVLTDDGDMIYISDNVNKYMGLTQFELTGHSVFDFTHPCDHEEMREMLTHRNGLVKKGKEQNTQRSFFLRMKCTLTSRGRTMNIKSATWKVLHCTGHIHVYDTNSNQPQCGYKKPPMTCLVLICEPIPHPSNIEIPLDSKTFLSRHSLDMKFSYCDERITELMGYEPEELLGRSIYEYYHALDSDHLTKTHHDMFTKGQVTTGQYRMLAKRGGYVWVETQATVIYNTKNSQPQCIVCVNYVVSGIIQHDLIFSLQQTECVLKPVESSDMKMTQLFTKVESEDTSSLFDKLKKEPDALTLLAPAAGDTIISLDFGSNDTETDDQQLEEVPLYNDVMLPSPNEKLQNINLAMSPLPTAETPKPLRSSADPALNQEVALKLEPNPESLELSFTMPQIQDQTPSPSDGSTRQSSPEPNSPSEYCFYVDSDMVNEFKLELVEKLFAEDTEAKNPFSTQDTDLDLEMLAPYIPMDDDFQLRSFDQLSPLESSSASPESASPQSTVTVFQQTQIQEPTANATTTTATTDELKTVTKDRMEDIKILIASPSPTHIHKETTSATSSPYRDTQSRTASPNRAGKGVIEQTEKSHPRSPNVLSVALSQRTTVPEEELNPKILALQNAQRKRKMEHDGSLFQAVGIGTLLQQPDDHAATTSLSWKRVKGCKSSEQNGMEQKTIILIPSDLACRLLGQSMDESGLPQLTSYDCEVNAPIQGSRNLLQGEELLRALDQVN
Description: (§1) 293 cells (3×10^6 cells per […] plate) were transfected with Lipofectamine Plus and a total of 10 μg of expression vectors. After 24 h, cells were lysed with PBS/0.1% Tween-20. 400 μg of whole cell lysate (brought to a final volume of 200 μl with lysis buffer) were immunoprecipitated using anti-HA affinity matrix (Roche) followed by immunoblot assay using antibody against HIF-1α (Zhong et al. 1999), PHD 1-3 (Novus Biologicals Inc.), or HA (Roche).

PHD1 = target: T2, PHD1 (Homo sapiens, UniProt Q96KS0); experiment: Co-immunoprecipitation of HA-OS-9 with PHD1 in 293 cells; type: cell-based; settings: anti-HA immunoprecipitates, immunoblot; FIG. 5
T2 construct: expressed in transfected cells; host or cells: 293 cells
T2 sequence (Q96KS0 whole entry): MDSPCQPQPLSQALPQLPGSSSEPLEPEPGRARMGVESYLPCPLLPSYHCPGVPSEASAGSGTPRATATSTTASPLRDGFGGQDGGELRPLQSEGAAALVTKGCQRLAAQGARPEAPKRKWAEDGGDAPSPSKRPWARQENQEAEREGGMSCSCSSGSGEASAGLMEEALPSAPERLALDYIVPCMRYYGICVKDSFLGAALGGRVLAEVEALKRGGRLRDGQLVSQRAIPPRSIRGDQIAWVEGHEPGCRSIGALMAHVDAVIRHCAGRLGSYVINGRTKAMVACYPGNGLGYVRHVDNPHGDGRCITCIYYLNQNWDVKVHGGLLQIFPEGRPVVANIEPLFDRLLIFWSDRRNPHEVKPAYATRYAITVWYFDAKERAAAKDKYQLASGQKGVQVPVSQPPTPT
Description: as §1

PHD2 [2] = experiment: PHD2 protein levels by immunoblot in transfected 293 cells; type: cell-based, human; settings: co-transfection of OS-9 vector; FIG. 7C
Description: 293 or Hep3B cells were seeded onto 24-well plates at 8×10^4 cells per well of a 24-well plate. The following day, the cells were transfected with plasmid DNAs using Fugene-6 (Roche) for 293 and Lipofectamine Plus (Invitrogen) for Hep3B cells. After 24 h, the cells were exposed to 20% or 1% O2 for 24 h. Cells were lysed, and the luciferase activities were determined by multi-well luminescence reader (PerkinElmer), using the Dual-Luciferase Reporter Assay System (Promega). For p2.1 reporter assay, cells were co-transfected with 15 ng of control reporter pSV-Renilla, 135 ng of HIF-1 reporter p2.1, and expression vector encoding HA-OS-9, HIF-1α, or empty vector. Unless indicated otherwise, 200 ng of HIF-1α, 400 ng of HA-OS-9, 1 ng of PHD2, or 1 ng of HIF-1α triple mutant P402A/P564A/N803A (HIF-1α TM) expression vector was used for co-transfection. […]
For in vitro VHL binding assay, preincubated GstA and 5 μl of [^35S]methionine-labeled VHL protein were mixed in a total volume of 300 μl of PBS-T with 1 mM desferrioxamine and incubated at 4° C. for 90 min. […] Beads were washed three times with PBS-T. Proteins were eluted in Laemmli sample buffer, fractionated by SDS-PAGE, and detected by autoradiography. […]

T1 sequence (Q9GZT9 whole entry): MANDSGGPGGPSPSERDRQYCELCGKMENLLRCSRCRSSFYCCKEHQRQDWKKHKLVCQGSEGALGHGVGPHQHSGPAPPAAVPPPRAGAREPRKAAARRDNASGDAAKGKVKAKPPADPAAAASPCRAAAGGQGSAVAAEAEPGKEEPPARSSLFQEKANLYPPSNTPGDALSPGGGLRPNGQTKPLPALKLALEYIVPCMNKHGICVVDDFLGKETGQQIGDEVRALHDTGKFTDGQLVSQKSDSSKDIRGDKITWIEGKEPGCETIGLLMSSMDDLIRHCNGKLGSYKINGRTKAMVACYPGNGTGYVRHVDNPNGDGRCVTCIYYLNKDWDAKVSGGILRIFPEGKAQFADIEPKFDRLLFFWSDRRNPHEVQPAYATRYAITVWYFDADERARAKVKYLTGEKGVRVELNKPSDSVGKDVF

prolyl hydroxylation of GST-HIF-1α (531-826) (hydroxyproline at residue 564) (PHD2 [1]; immunoblot with anti-Hyp-564 antibody, FIG. 7A middle panel): increase
binding of VHL to hydroxylated GST-HIF-1α (531-826) (PHD2 [1]; increasing amounts of in vitro-translated OS-9 added after hydroxylation, desferrioxamine present, FIG. 6C): no effect
VHL binding to GST-HIF-1α (531-826) (PHD2 [1]; lysates from cells co-transfected with PHD2 and OS-9 versus PHD2 alone, FIG. 7A top panel): further increased
interaction of HA-OS-9 and HIF-1α in living cells (HIF-1α): coimmunoprecipitation
interaction of OS-9 with PHD1 (PHD1): interaction
B1: OS-9: human OS-9 protein (667-residue isoform), HA-tagged, from expression vector or in vitro-translated (protein)
chain: MAAETLLSSLLGLLLLGLLLPASLTGGVGSLNLEELSEMRYGIEILPLPVMGGQSQSSDVVIVSSKYKQRYECRLPAGAIHFQREREEETPAYQGPGIPELLSPMRDAPCLLKTKDWWTYEFCYGRHIQQYHMEDSEIKGEVLYLGYYQSAFDWDDETAKASKQHRLKRYHSQTYGNGSKCDLNGRPREAEVRFLCDEGAGISGDYIDRVDEPLSCSYVLTIRTPRLCPHPLLRPPPSAAPQAILCHPSLQPEEYMAYVQRQADSKQYGDKIIEELQDLGPQVWSETKSGVAPQKMAGASPTKDDSKDSDFWKMLNEPEDQAPGGEEVPAEEQDPSPEAADSASGAPNDFQNNVQVKVIRSPADLIRFIEELKGGTKKGKPNIGQEQPVDDAAEVPQREPEKERGDPERQREMEEEEDEDEDEDEDEDERQLLGEFEKELEGILLPSDRDRLRSEVKAGMERELENIIQETEKELDPDGLKKESERDRAMLALTSTLNKLIKRLEEKQSPELVKKHKKKRVVPKKPPPSPQPTEEDPEHRVRVRVTKLRLGGPNQDLTVLEMKRENPQLKQIEGLVKELLEREGLTAAGKIEIKIVRPWAEGTEEGARWLTDEDTRNLKEIFFNILVPGAEEAQKERQRQKELESNYRRVWGSPGGEGTGDLDEFDF
modifications: left off: small tags and cut ends
notes: human OS-9 protein (667-residue isoform), HA-tagged, from expression vector or in vitro-translated
PHD2 protein levels (PHD2 [2]): no effect
